According to US20220195023A1 (ATRECA, published 2022):

Target: T1, CSP Protein (Plasmodium falciparum, UniProt Q7K740 19-374)
T1 construct: also called circumsporozoite protein; complete CSP protein
Assay: SPR, antibody on chip;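 also: antibodies immobilized on a Carterra chip, directly or via anti-human Fc capture, at two spots each, with CSP flowed over at 4-5 concentrations peaking at 0.5-8 µg/mL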
Procedure: For SPR, each antibody was either directly coupled to a Carterra Chip or coupled using a goat anti-human Fc antibody. The uncoupled antibodies were washed off and various concentration gradients of the targets were flowed over the antibodies, where the highest concentration of each target was in the range 0.5-8 μg/mL. Each antibody was immobilized in two different locations on the chip to allow for duplicate measurements. The affinity for each antibody-target combination was determined using 4-5 target concentrations in Mathematica software. If variation between the two duplicates was >3-fold, the antibody-target measurement was repeated.

T1 sequence (Q7K740 19-374 limits assumed): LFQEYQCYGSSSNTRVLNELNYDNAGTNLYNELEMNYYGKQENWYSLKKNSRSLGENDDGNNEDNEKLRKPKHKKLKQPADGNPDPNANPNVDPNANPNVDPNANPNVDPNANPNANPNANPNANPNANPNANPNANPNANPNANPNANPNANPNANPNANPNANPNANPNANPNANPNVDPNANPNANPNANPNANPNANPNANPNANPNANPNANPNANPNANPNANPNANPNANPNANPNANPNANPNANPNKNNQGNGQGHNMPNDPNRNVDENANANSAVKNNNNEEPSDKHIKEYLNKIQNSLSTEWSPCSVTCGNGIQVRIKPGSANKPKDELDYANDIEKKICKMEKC

Binder	Kd
AB-007051 (antibody, V domains shown) VH: QMQLVESGGGVVQPGRSLRLSCTASGFTFSTYAMHWVRQSPGQGLQWVAVISYHSRNKYYEDSVRGRFTISRDNSKNTLYLQMNSLRAEDTAVYYCARDGYSSSFFDFWGQGTLVTVSS VL: DIQMTQSPSTLSASVGDRVAITCRASQSISRWLAWYQQQPGKAPKLLMSGASVLESGVPSRFSGSGSGTEFTLTISSLQPDDFATYYCQHYNSYFVTFGQGTKVEIK	0.0414 nM
AB-007060 (antibody, V domains shown) VH: QMQLVESGGGVVQPGRSLRLSCTASGFTFSTYAMHWVRQSPGQGLQWVAVISYHSTNKYYEDSVRGRFTISRDNSKNTLYLQMNSLRAEDTAVYYCARDGYSSSYFDFWGQGTLVTVSS VL: DIQMTQSPSTLSASVGDRVAITCRASQSISRWLAWYQQQPGKAPKLLMSGASVLESGVPSRFSGSGSGTEFTLTISSLQPDDFATYYCQHYNSYFVTFGQGTKVEIK	0.199 nM
AB-007057 (antibody, V domains shown) VH: QMQLVESGGGVVQPGRSLRLSCTASGFTFSTYAMHWVRQSPGQGLQWVAVISYHSTNKYYEDSVRGRFTISRDNSKNTLYLQMNSLRAEDTAVYYCARDGYHSSFFDFWGQGTLVTVSS VL: DIQMTQSPSTLSASVGDRVAITCRASQSISRWLAWYQQQPGKAPKLLMSGASVLESGVPSRFSGSGSGTEFTLTISSLQPDDFATYYCQHYNSYFVTFGQGTKVEIK	0.153 nM
AB-007059 (antibody, V domains shown) VH: QMQLVESGGGVVQPGRSLRLSCTASGFTFSTYAMHWVRQSPGQGLQWVAVISYHSTNKYYEDSVRGRFTISRDNSKNTLYLQMNSLRAEDTAVYYCARDGYSSTFFDFWGQGTLVTVSS VL: DIQMTQSPSTLSASVGDRVAITCRASQSISRWLAWYQQQPGKAPKLLMSGASVLESGVPSRFSGSGSGTEFTLTISSLQPDDFATYYCQHYNSYFVTFGQGTKVEIK	1.08 nM
AB-007064 (antibody, V domains shown) VH: QMQLVESGGGVVQPGRSLRLSCTASGFTFSTYAMHWVRQSPGQGLQWVAVISYHSTNKYYEDSVRGRFTISRDNSKNTLYLQMNSLRAEDTAVYYCARDGYSSSFFDFWGQGTLVTVSS VL: DIQMTQSPSTLSASVGDRVAITCRASQSISRWLAWYQQQPGKAPKLLMTGASVLESGVPSRFSGSGSGTEFTLTISSLQPDDFATYYCQHYNSYFVTFGQGTKVEIK	0.556 nM
AB-007061 (antibody, V domains shown) VH: QMQLVESGGGVVQPGRSLRLSCTASGFTFSTYAMHWVRQSPGQGLQWVAVISYHSTNKYYEDSVRGRFTISRDNSKNTLYLQMNSLRAEDTAVYYCARDGYSSSFFDFWGQGTLVTVSS VL: DIQMTQSPSTLSASVGDRVAITCRASQSIDRWLAWYQQQPGKAPKLLMSGASVLESGVPSRFSGSGSGTEFTLTISSLQPDDFATYYCQHYNSYFVTFGQGTKVEIK	0.0504 nM
AB-007063 (antibody, V domains shown) VH: QMQLVESGGGVVQPGRSLRLSCTASGFTFSTYAMHWVRQSPGQGLQWVAVISYHSTNKYYEDSVRGRFTISRDNSKNTLYLQMNSLRAEDTAVYYCARDGYSSSFFDFWGQGTLVTVSS VL: DIQMTQSPSTLSASVGDRVAITCRASQSISRWLAWYQQQPGKAPKLLMAGASVLESGVPSRFSGSGSGTEFTLTISSLQPDDFATYYCQHYNSYFVTFGQGTKVEIK	0.0524 nM
AB-007055 (antibody, V domains shown) VH: QMQLVESGGGVVQPGRSLRLSCTASGFTFSTYAMHWVRQSPGQGLQWVAVISYHSTNKYYEDSVRGRFTISRDNSKNTLYLQMNSLRAEDTAVYYCARDGYTSSFFDFWGQGTLVTVSS VL: DIQMTQSPSTLSASVGDRVAITCRASQSISRWLAWYQQQPGKAPKLLMSGASVLESGVPSRFSGSGSGTEFTLTISSLQPDDFATYYCQHYNSYFVTFGQGTKVEIK	0.374 nM
AB-007054 (antibody, V domains shown) VH: QMQLVESGGGVVQPGRSLRLSCTASGFTFSTYAMHWVRQSPGQGLQWVAVISYHSTNKYYEDSVRGRFTISRDNSKNTLYLQMNSLRAEDTAVYYCARDGYASSFFDFWGQGTLVTVSS VL: DIQMTQSPSTLSASVGDRVAITCRASQSISRWLAWYQQQPGKAPKLLMSGASVLESGVPSRFSGSGSGTEFTLTISSLQPDDFATYYCQHYNSYFVTFGQGTKVEIK	0.17 nM
AB-007053 (antibody, V domains shown) VH: QMQLVESGGGVVQPGRSLRLSCTASGFTFSTYAMHWVRQSPGQGLQWVAVISYHSTQKYYEDSVRGRFTISRDNSKNTLYLQMNSLRAEDTAVYYCARDGYSSSFFDFWGQGTLVTVSS VL: DIQMTQSPSTLSASVGDRVAITCRASQSISRWLAWYQQQPGKAPKLLMSGASVLESGVPSRFSGSGSGTEFTLTISSLQPDDFATYYCQHYNSYFVTFGQGTKVEIK	0.298 nM
AB-007052 (antibody, V domains shown) VH: QMQLVESGGGVVQPGRSLRLSCTASGFTFSTYAMHWVRQSPGQGLQWVAVISYHSNNKYYEDSVRGRFTISRDNSKNTLYLQMNSLRAEDTAVYYCARDGYSSSFFDFWGQGTLVTVSS VL: DIQMTQSPSTLSASVGDRVAITCRASQSISRWLAWYQQQPGKAPKLLMSGASVLESGVPSRFSGSGSGTEFTLTISSLQPDDFATYYCQHYNSYFVTFGQGTKVEIK	0.0261 nM
AB-007066 (antibody, V domains shown) VH: QMQLVESGGGVVQPGRSLRLSCTASGFTFSTYAMHWVRQSPGQGLQWVAVISYHSTNKYYEDSVRGRFTISRDNSKNTLYLQMNSLRAEDTAVYYCARDGYSSSFFDFWGQGTLVTVSS VL: DIQMTQSPSTLSASVGDRVAITCRASQSISRWLAWYQQQPGKAPKLLMSQASVLESGVPSRFSGSGSGTEFTLTISSLQPDDFATYYCQHYNSYFVTFGQGTKVEIK	0.376 nM
AB-007056 (antibody, V domains shown) VH: QMQLVESGGGVVQPGRSLRLSCTASGFTFSTYAMHWVRQSPGQGLQWVAVISYHSTNKYYEDSVRGRFTISRDNSKNTLYLQMNSLRAEDTAVYYCARDGYQSSFFDFWGQGTLVTVSS VL: DIQMTQSPSTLSASVGDRVAITCRASQSISRWLAWYQQQPGKAPKLLMSGASVLESGVPSRFSGSGSGTEFTLTISSLQPDDFATYYCQHYNSYFVTFGQGTKVEIK	0.042 nM
AB-007065 (antibody, V domains shown) VH: QMQLVESGGGVVQPGRSLRLSCTASGFTFSTYAMHWVRQSPGQGLQWVAVISYHSTNKYYEDSVRGRFTISRDNSKNTLYLQMNSLRAEDTAVYYCARDGYSSSFFDFWGQGTLVTVSS VL: DIQMTQSPSTLSASVGDRVAITCRASQSISRWLAWYQQQPGKAPKLLMSKASVLESGVPSRFSGSGSGTEFTLTISSLQPDDFATYYCQHYNSYFVTFGQGTKVEIK	0.454 nM
AB-007062 (antibody, V domains shown) VH: QMQLVESGGGVVQPGRSLRLSCTASGFTFSTYAMHWVRQSPGQGLQWVAVISYHSTNKYYEDSVRGRFTISRDNSKNTLYLQMNSLRAEDTAVYYCARDGYSSSFFDFWGQGTLVTVSS VL: DIQMTQSPSTLSASVGDRVAITCRASQSISSWLAWYQQQPGKAPKLLMSGASVLESGVPSRFSGSGSGTEFTLTISSLQPDDFATYYCQHYNSYFVTFGQGTKVEIK	0.0849 nM
AB-007058 (antibody, V domains shown) VH: QMQLVESGGGVVQPGRSLRLSCTASGFTFSTYAMHWVRQSPGQGLQWVAVISYHSTNKYYEDSVRGRFTISRDNSKNTLYLQMNSLRAEDTAVYYCARDGYSTSFFDFWGQGTLVTVSS VL: DIQMTQSPSTLSASVGDRVAITCRASQSISRWLAWYQQQPGKAPKLLMSGASVLESGVPSRFSGSGSGTEFTLTISSLQPDDFATYYCQHYNSYFVTFGQGTKVEIK	0.149 nM
